# From the Immune Epitope Database (IEDB)
# Legend:
# HLA-A*30:02 = assay: IEDB peptide-MHC binding, purified MHC/competitive/radioactivity; filed as Kd, often an IC50 or EC50 that approximates it; ≥ and ≤ were set here for values at or beyond the usual limits of such assays
# HLA-B*07:02 = assay: IEDB peptide-MHC binding, purified MHC/direct/fluorescence; filed as Kd, often an IC50 or EC50 that approximates it; ≥ and ≤ were set here for values at or beyond the usual limits of such assays; details: source organism: Human immunodeficiency virus 1
# HLA-B*44:02 = assay: IEDB peptide-MHC binding, purified MHC/competitive/radioactivity; filed as Kd, often an IC50 or EC50 that approximates it; ≥ and ≤ were set here for values at or beyond the usual limits of such assays
# HLA-B*44:03 = assay: as above
# HLA-A*03:01 [1] = assay: IEDB peptide-MHC binding, purified MHC/direct/fluorescence; filed as Kd, often an IC50 or EC50 that approximates it; ≥ and ≤ were set here for values at or beyond the usual limits of such assays
# HLA-A*11:01 [2] = assay: as above
# HLA-B*15:01 = assay: as above; details: source organism: Bacillus licheniformis
# HLA-A*26:01 = assay: IEDB peptide-MHC binding, purified MHC/competitive/radioactivity; filed as Kd, often an IC50 or EC50 that approximates it; ≥ and ≤ were set here for values at or beyond the usual limits of such assays
# HLA-A*24:02 = assay: as above
# HLA-A*03:01 [3] = assay: as above; details: source organism: Vaccinia virus WR
# HLA-A*11:01 [4] = assay: as above; details: source organism: Vaccinia virus WR
# HLA-A*29:02 = assay: as above
# HLA-A*31:01 = assay: as above; details: source organism: Vaccinia virus WR
# HLA-A*33:01 = assay: as above; details: source organism: Vaccinia virus WR
# HLA-A*68:01 = assay: as above; details: source organism: Vaccinia virus WR
# HLA-A*01:01 = assay: as above
# HLA-A*02:02 = assay: as above
# HLA-A*02:03 = assay: as above
# HLA-A*02:06 = assay: as above
# HLA-A*23:01 = assay: as above
# [5] = source organism: Dengue virus 3 Martinique/1243/1999
# [6] = source organism: Dengue virus 2 Jamaica/1409/1983
# [7] = source organism: Bacillus licheniformis
# [8] = source organism: Dengue virus 4 Philippines/H241/1956
# [9] = source organism: Vaccinia virus WR
# [10] = source organism: Dengue virus 1 Nauru/West Pac/1974
# [11] = source organism: Dengue virus 1 Brazil/97-11/1997
# [12] = source organism: Lassa virus Josiah
# [13] = source organism: Mammarenavirus lassaense
# [14] = source organism: Mammarenavirus machupoense
# [15] = source organism: Mammarenavirus whitewaterense
# [16] = source organism: Mammarenavirus guanaritoense
# [17] = source organism: Lymphocytic choriomeningitis virus (strain Armstrong)
sequence,measurement,setting,value
CGRGGWSYY,Kd,HLA-A*30:02; [5],253 nM
IPLTEEAEL,Kd,HLA-B*07:02,5310 nM
QEHETSWHYD,Kd,HLA-B*44:02; [6],158 nM
same,Kd,HLA-B*44:03; [6],746 nM
GVGAPTTTY,Kd,HLA-A*03:01 [1]; [7],7450 nM
same,Kd,HLA-A*11:01 [2]; [7],10100 nM
same,Kd,HLA-B*15:01,120 nM
HFFMKHPNK,Kd,HLA-A*03:01 [1]; source organism: Coxiella burnetii,218 nM
ELPETMETLL,Kd,HLA-A*26:01; [5],2370 nM
TWAKNIHTAI,Kd,HLA-A*24:02; [8],2000 nM
RYPLTFGWCF,Kd,HLA-A*24:02; source organism: HIV-1 M:B_ARV2/SF2,17 nM
IVNNQESNKY,Kd,HLA-A*03:01 [3],487 nM
same,Kd,HLA-A*11:01 [4],1650 nM
same,Kd,HLA-A*29:02; [9],≥ 32600 nM
same,Kd,HLA-A*31:01,≥ 52900 nM
same,Kd,HLA-A*33:01,≥ 70000 nM
same,Kd,HLA-A*68:01,7540 nM
AEIQPQWIAA,Kd,HLA-B*44:02; [8],67.2 nM
same,Kd,HLA-B*44:03; [8],1120 nM
EAEPPFGESY,Kd,HLA-A*01:01; [10],1360 nM
same,Kd,HLA-A*26:01; [10],669 nM
ERPAFGIQK,Kd,HLA-A*11:01 [2]; source organism: Homo sapiens,17500 nM
EISSMLNIM,Kd,HLA-A*26:01; [11],657 nM
YVSVMNFIPI,Kd,HLA-A*02:02; [9],341 nM
same,Kd,HLA-A*02:03; [9],152 nM
same,Kd,HLA-A*02:06; [9],0.109 nM
ETLMLLALIA,Kd,HLA-A*26:01; [11],≥ 33600 nM
VAKCCSKTNT,Kd,HLA-A*02:02; [9],14700 nM
same,Kd,HLA-A*02:03; [9],≥ 21700 nM
same,Kd,HLA-A*02:06; [9],≥ 40800 nM
IQYRQQLEL,Kd,HLA-A*02:02; [9],511 nM
same,Kd,HLA-A*02:03; [9],44.9 nM
same,Kd,HLA-A*02:06; [9],41.3 nM
HYLCLNCLT,Kd,HLA-A*01:01; [12],6910 nM
same,Kd,HLA-A*26:01; [12],≥ 77900 nM
same,Kd,HLA-A*30:02; [12],3020 nM
IAGGVCYYL,Kd,HLA-A*02:02; [9],53.1 nM
same,Kd,HLA-A*02:03; [9],1680 nM
same,Kd,HLA-A*02:06; [9],1410 nM
LVQIENLEY,Kd,HLA-A*01:01; [8],90.4 nM
same,Kd,HLA-A*30:02; [8],1110 nM
ITLILSNKL,Kd,HLA-A*02:02; [9],5110 nM
same,Kd,HLA-A*02:03; [9],17100 nM
same,Kd,HLA-A*02:06; [9],396 nM
LNCLSLLLSV,Kd,HLA-A*02:02; [13],123 nM
same,Kd,HLA-A*02:03; [13],230 nM
same,Kd,HLA-A*02:06; [13],250 nM
IVYGRSNAIL,Kd,HLA-A*02:02; [9],91.6 nM
same,Kd,HLA-A*02:03; [9],33.4 nM
same,Kd,HLA-A*02:06; [9],424 nM
LLDCIMYQS,Kd,HLA-A*02:02; [14],1530 nM
same,Kd,HLA-A*02:03; [14],2270 nM
same,Kd,HLA-A*02:06; [14],3280 nM
KKGKVVGLY,Kd,HLA-A*30:02; source organism: Dengue virus 2 Peru/IQT2913/1996,85.3 nM
FTELENKKV,Kd,HLA-A*02:02; [9],19600 nM
same,Kd,HLA-A*02:03; [9],8080 nM
same,Kd,HLA-A*02:06; [9],6840 nM
TQFNFNGHT,Kd,HLA-A*02:02; [9],≥ 43300 nM
same,Kd,HLA-A*02:03; [9],14400 nM
same,Kd,HLA-A*02:06; [9],≥ 10000 nM
PFDTRQMLFY,Kd,HLA-A*01:01; source organism: Homo sapiens,252 nM
TIESAKTKI,Kd,HLA-A*02:02; [9],16300 nM
same,Kd,HLA-A*02:03; [9],≥ 54100 nM
same,Kd,HLA-A*02:06; [9],≥ 51100 nM
DTSEVHWNY,Kd,HLA-A*01:01; [8],111 nM
same,Kd,HLA-A*26:01; [8],41.6 nM
same,Kd,HLA-A*30:02; [8],3860 nM
GVPHSVFIA,Kd,HLA-A*02:02; [9],5370 nM
same,Kd,HLA-A*02:03; [9],3630 nM
same,Kd,HLA-A*02:06; [9],101 nM
LTDFQSHQL,Kd,HLA-A*01:01; source organism: Dengue virus 1 Singapore/S275/1990,6440 nM
LIKTLSPAHL,Kd,HLA-A*02:02; [9],1850 nM
same,Kd,HLA-A*02:03; [9],356 nM
same,Kd,HLA-A*02:06; [9],10200 nM
AAVIIMAINV,Kd,HLA-A*02:02; [9],1290 nM
same,Kd,HLA-A*02:03; [9],607 nM
same,Kd,HLA-A*02:06; [9],446 nM
SYKIGHHVEL,Kd,HLA-A*23:01; [15],15900 nM
same,Kd,HLA-A*24:02; [15],12900 nM
same,Kd,HLA-A*29:02; [15],≥ 56900 nM
SFKVGHHTNF,Kd,HLA-A*23:01; [16],1320 nM
same,Kd,HLA-A*24:02; [16],11000 nM
same,Kd,HLA-A*29:02; [16],814 nM
FMLNVSYLC,Kd,HLA-A*02:02; [17],196 nM
same,Kd,HLA-A*02:03; [17],1250 nM
same,Kd,HLA-A*02:06; [17],932 nM
IVSHLRASTT,Kd,HLA-A*02:02; [9],139 nM
same,Kd,HLA-A*02:03; [9],111 nM
same,Kd,HLA-A*02:06; [9],173 nM
DISDVKVLAA,Kd,HLA-A*02:02; [9],≥ 33800 nM
same,Kd,HLA-A*02:03; [9],2200 nM
same,Kd,HLA-A*02:06; [9],4610 nM
MVTLYLGVM,Kd,HLA-A*26:01; [11],163 nM
TTEAILPEY,Kd,HLA-A*01:01; [5],30.6 nM
same,Kd,HLA-A*26:01; [5],1180 nM
same,Kd,HLA-A*30:02; [5],≥ 54300 nM
RLQMAGVEV,Kd,HLA-A*02:02; [9],326 nM
same,Kd,HLA-A*02:03; [9],531 nM
same,Kd,HLA-A*02:06; [9],4110 nM
